Measured values: article doi:10.1101/2024.07.10.602929 (2024)
Each block holds one binder with its values, some of them ahead of it. Where no end group is shown, it is not given here. The star is where a group is joined. Biotin = O=C1N[C@H]2[C@H](CS[C@H]2CCCCC(=O)*)N1

Experiments:
Test in all cases: BLI
[1] = target: 1 (human, UniProt Q9H0R8 1-117)
[2] = target: GABARAP (γ-aminobutyric acid type A receptor-associated protein) (human, UniProt O95166 1-117)
[3] = target: GABARAPL2 (human, UniProt P60520 1-117)
[4] = target: LC3B (human, UniProt Q9GZQ8 1-120)
[5] = target: LC3A (human, UniProt Q9H492 1-121)

Sequence of GABARAPL2 (P60520 whole entry): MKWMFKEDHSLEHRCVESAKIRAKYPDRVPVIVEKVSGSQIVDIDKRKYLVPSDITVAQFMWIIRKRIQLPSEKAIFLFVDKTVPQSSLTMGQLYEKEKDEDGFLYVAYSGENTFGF
Sequence of GABARAP (γ-aminobutyric acid type A receptor-associated protein) (O95166 whole entry): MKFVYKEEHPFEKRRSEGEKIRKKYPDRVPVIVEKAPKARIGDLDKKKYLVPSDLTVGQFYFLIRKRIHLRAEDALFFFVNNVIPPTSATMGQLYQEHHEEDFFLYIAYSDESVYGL
Sequence of 1 (Q9H0R8 whole entry): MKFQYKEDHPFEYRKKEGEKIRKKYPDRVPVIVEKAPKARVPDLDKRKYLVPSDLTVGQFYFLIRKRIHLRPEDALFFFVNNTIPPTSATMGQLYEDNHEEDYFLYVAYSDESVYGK

Kd [1]: 48 µM
Kd [2]: 304 µM
Kd [3]: 146 µM
Kd [4]: 1460 µM
Kd [5]: 648 µM
B1: EGFR LIR2 peptide (EGFR residues 1190–1210), N-terminally biotinylated (peptide)
peptide: Biotin-STAENAEYLRVAPQSSEFIGA

Kd [2]: 3.7 µM
Kd [3]: 15 µM
Kd [4]: 369 µM
Kd [5]: 118 µM
B2: PCM1 LIR peptide (pericentriolar material 1 protein residues 1954-1968), N-terminally biotinylated (peptide)
peptide: Biotin-ISQKSDEEDFVKVED

Kd [1]: 21.6 µM
Kd [3]: 105 µM
Kd [4]: 435 µM
Kd [5]: 231 µM
B3: EGFR LIR1 peptide (EGFR residues 1076–1099), N-terminally biotinylated (peptide)
peptide: Biotin-ALTEDSIDDTFLPVPEYINQSVPK
